Measurements reported in patent publication US9334316B2, “Formulations comprising glucagon” (Oregon Health & Science University, priority 2014, dated 2016).
Read-outs that look alike come from different tables or passages of the source. Blank lines part the entries; values can stand above or below the compound they belong to.

How the values were obtained:
[1] = Curcumin half-life in glycine buffer at pH 9.0; assay type: physicochemical
From the text: Curcumin reduces Aβ fibril formation in vitro and when administered systemically to transgenic rodents predisposed to Alzheimer's disease (Hamaguchi T et al, Am J Pathol 175, 2557-2565 (2009) incorporated by reference herein). Curcumin has also been reported to inhibit the polymerization of α-synuclein, the compound responsible for Lewy body formation in diseases such as Parkinson's disease (Ono K and Yamada M, Curr Pharm Des 14, 3247-3266 (2008) and Ono K et al Curr Pharm Des 14, 3247-3266 (2008); both of which are incorporated by reference herein). This finding was confirmed in Pandey N et al, Acta Neuropathol 115, 479-489 (2008); which is incorporated by reference herein. However, curcumin stored in a glycine buffer at pH 9.0 degrades quickly with a half-life of about 7 hours.

[2] = Reversed phase LCMS of glucagon modifications after aging; assay type: physicochemical
Description: FIG. 3 is a set of four chromatograms from reversed phase LCMS showing the modifications present in glucagon incubated with ferulic acid under the indicated conditions and the recovery by adding varying amounts of L-methionine. The peak indicated as ‘A’ is identified as Met27 oxidation of glucagon; the peak indicated as ‘B’ is a minor breakdown product; the peaks indicated as ‘C’ are identified as glycine adducts.
FIG. 4 is a set of four spectra from reversed phase LCMS showing the modifications present in glucagon incubated under the indicated conditions. The peak indicated as ‘A’ is identified as Met27 oxidation of glucagon; the peak indicated as ‘B’ is a minor breakdown product; the peaks indicated as ‘C’ are identified as glycine adducts.
This oxidation occurs on amino acid residue 27, which is a methionine residue (Met27). In order to minimize oxidation, L-methionine was added to the formulation as an antioxidant at 0.1 and 1 mg/ml. […] This is presumably due to activation of a reactive site on the glucagon backbone that results in an addition reaction with glycine from the bulk solvent. In order to maximize the antioxidant properties while also minimizing the glycine adduct formation, a concentration of 0.1 mg/ml L-methionine was tested. Results are shown in the third panel from the top of FIG. 3. This particular formulation had some minor chain cleavage (peak B) that is variable from batch to batch. As a result, the formulation referred to herein as FAFG includes 0.1 mg/ml L-methionine.
This peak is inhibited at 0.1 mg/ml L-methionine added and nearly absent at 1 mg/ml L-methionine to minimize the oxidation even though glycine adducts are still in high amounts. As a result, the formulation referred to herein as THCFG includes 1 mg/ml L-methionine.
Ferulic acid and tetrahydrocurcumin modify glucagon less than curcumin.

[3] = cited from earlier work
[4] = 37° C., alkaline (around pH 10) compared to acidic (about pH 3); cited from earlier work
cultured mammalian cells = conditions: fibrillated glucagon; cited from earlier work
[5] = 1st order degradation kinetics of ferulic acid / tetrahydrocurcumin in glucagon formulations; assay type: physicochemical; conditions: for half-life at 1 mM: buffer, read-out: degradation t1/2 (converted)

half-life ([1]; glucagon buffer with further addition of human serum albumin): 33.5 h | half-life ([1]; in a glucagon buffer): 12.5 h | half-life ([1]; stored in glycine buffer at pH 9.0): ~7 h
Compound: COc1cc(/C=C/C(=O)CC(=O)/C=C/c2ccc(O)c(OC)c2)ccc1O [curcumin]

Compound: glucagon
Met27 oxidation of glucagon (peak A, LCMS) ([2]; aged 7 days at 37° C. with 1 mM ferulic acid): minor oxidation occurs | Met27 oxidation of glucagon (peak A, LCMS) ([2]; aged with 1 mM ferulic acid + 1 mg/ml L-methionine): minimization of oxidation | retention of unmodified glucagon ([2]; curcumin formulation + 1 mg/ml L-methionine): higher retention of unmodified glucagon | oxidation of glucagon ([2]; incubated with curcumin for 7 days at 37° C.): complete oxidation | Met27 oxidation of glucagon (peak A, LCMS) ([2]; incubated with tetrahydrocurcumin): much higher amount of Met27 oxidation | Met27 oxidation of glucagon (peak A, LCMS) ([2]; tetrahydrocurcumin + 0.1 mg/ml L-methionine): inhibited | Met27 oxidation of glucagon (peak A, LCMS) ([2]; tetrahydrocurcumin + 1 mg/ml L-methionine): nearly absent | cytotoxicity ([3]; aged at pH 10 in glycine): no cytotoxicity | cytotoxicity ([3]; aged for 5 days at pH 8.5, concentration 2.5 mg/ml): some cytotoxicity | amyloid fibril formation [4]: much less amyloid fibril formation | cytotoxicity (cultured mammalian cells): cytotoxic

Compound: COc1cc(CCC(=O)CC(=O)CCc2ccc(O)c(OC)c2)ccc1O [tetrahydrocurcumin]
1st order degradation k ([5]; 1 mM compound in 80 mM glycine pH 9.0): 0.00886 s⁻¹ | 1st order degradation k ([5]; 1 mM compound in 80 mM glycine pH 9.0 + 1 mg/ml glucagon): 0.000743 s⁻¹ | 1st order degradation k ([5]; 1 mM compound in 80 mM glycine pH 9.0 + 1 mg/ml glucagon + 1 mg/ml HSA): -0.0025 s⁻¹ | half-life at 1 mM ([5]; pH 9, 1 mM compound in 80 mM glycine pH 9.0 + 1 mg/ml glucagon): 933 h | half-life at 1 mM ([5]; pH 9, 1 mM compound in 80 mM glycine pH 9.0): ~78 h

1st order degradation k ([5]; 1 mM, pH 9): -0.000701 s⁻¹
Compound: COc1cc(/C=C/C(=O)O)ccc1O [ferulic acid]
